Earlier results on one substance are cited in article PMC9686918.

The term Kd denotes the equilibrium constant for the complex coming apart.

The target of this data set is myeloperoxidase (Homo sapiens) (UniProt P05164).
Chain of myeloperoxidase (Homo sapiens) (P05164 165-273): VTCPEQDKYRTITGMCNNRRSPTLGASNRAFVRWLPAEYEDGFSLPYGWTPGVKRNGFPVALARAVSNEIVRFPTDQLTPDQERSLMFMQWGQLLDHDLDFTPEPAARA

For the substance “human serum albumin (from UniProt P02768)”, the Kd is 20 µM.
